Results reported in article PMC6220982.
“And” between values parts separate entries of the source, which are not always exact repeats. Equal entries are not always repeated.

Columns and labels:
[1] = molecular target: Asn3-ISP (intracellular subtilisin protease from Planococcus sp. AW02J18, starting at Asn3) (Planococcus sp. AW02J18); assay: SEC; pre-calibrated Superdex 200 10/300 GL; 500 µl Asn3-ISP at 0.8 mg/mL; 50 mM Tris-HCl pH 7.5, 150 mM NaCl; without calcium or with 1 mM EDTA (overnight)
[2] = molecular target: Asn3-ISP (intracellular subtilisin protease from Planococcus sp. AW02J18, starting at Asn3) (Planococcus sp. AW02J18); assay: SEC; pre-calibrated Superdex 200 10/300 GL; 500 µl Asn3-ISP at 0.8 mg/mL; 50 mM Tris-HCl pH 7.5, 150 mM NaCl; with 2 mM CaCl2 added immediately before the run

For “Asn3-ISP (intracellular subtilisin protease from Planococcus sp. AW02J18, starting at Asn3) (enzyme)”, the stoichiometry N (monomers per oligomer) [1] was 3.3 and the stoichiometry N (monomers per oligomer) [2] was 3.7 and 2.5.
